For this assay, the target named is biotinylated AP-neuroligin-1 on rat hippocampal neurons (mouse) (UniProt Q99K10). As to the kind of experiment: cell-based or functional assay.

Chain of monovalent streptavidin A1D3 conjugated to Alexa Fluor 568 (designed binder) (chain): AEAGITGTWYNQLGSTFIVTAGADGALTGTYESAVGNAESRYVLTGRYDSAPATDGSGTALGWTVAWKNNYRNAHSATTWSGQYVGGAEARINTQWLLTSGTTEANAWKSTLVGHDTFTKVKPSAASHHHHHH
Chain of monovalent streptavidin A1D3 conjugated to Alexa Fluor 568 (designed binder) (chain): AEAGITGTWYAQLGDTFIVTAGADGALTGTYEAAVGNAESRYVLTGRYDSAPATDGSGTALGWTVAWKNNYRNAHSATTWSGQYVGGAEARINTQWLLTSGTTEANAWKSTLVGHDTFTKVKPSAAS

“Alexa Fluor 568-conjugated wild-type streptavidin (Molecular Probes) (from UniProt P22629 37-163)”: the clusters/µm of labeled AP-neuroligin-1 after a two hour incubation turned out to be 0.266 clusters/µm.

The substance “monovalent streptavidin A1D3 conjugated to Alexa Fluor 568 (designed binder)” came in with a clusters/µm of labeled AP-neuroligin-1 after a two hour incubation of 0.087 clusters/µm.

(Values after US20070105162A1, “Monovalent avidin and streptavidin compositions” (Massachusetts Institute of Technology, priority 2005, published 2007).)
